Measurements from patent publication US12319739 (F STAR DELTA, dated 2025).

T1: human E-Cadherin (human, UniProt P12830 155-707)
T1 sequence (looked up): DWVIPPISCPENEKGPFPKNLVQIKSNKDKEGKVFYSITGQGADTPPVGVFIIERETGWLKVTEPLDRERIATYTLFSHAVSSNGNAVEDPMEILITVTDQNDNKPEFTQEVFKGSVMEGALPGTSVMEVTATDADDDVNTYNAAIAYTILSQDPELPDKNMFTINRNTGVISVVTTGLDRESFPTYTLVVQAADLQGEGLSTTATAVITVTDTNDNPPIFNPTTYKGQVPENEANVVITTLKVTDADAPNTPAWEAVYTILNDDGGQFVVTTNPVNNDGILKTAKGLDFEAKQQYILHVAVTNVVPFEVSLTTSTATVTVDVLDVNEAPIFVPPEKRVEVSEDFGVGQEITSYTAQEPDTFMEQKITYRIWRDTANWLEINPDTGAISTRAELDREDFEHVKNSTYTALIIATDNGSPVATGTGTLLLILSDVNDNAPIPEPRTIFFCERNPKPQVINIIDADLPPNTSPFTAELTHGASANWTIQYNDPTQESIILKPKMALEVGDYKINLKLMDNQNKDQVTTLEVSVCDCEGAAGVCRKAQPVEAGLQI

T2: human CEACAM-5-His-Fc (human, UniProt P06731 35-685)
T2 sequence (looked up): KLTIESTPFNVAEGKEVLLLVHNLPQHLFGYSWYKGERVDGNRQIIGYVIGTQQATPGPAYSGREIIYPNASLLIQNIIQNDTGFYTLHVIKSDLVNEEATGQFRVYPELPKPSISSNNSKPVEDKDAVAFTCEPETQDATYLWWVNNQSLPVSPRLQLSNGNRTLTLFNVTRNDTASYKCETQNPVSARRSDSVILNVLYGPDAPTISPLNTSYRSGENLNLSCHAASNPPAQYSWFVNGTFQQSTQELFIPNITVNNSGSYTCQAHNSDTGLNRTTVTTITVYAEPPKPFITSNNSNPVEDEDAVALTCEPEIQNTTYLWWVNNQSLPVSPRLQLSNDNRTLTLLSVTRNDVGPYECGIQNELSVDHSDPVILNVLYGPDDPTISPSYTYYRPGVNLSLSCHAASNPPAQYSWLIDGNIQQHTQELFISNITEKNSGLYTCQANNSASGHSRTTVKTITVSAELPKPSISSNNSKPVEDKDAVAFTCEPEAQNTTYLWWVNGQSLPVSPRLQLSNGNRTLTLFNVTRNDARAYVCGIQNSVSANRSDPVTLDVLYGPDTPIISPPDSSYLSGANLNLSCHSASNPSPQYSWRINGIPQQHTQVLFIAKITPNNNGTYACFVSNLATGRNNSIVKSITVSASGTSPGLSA

T3: human EpCAM-hFc (human, UniProt P16422 24-265, limits assumed)
T3 sequence (looked up): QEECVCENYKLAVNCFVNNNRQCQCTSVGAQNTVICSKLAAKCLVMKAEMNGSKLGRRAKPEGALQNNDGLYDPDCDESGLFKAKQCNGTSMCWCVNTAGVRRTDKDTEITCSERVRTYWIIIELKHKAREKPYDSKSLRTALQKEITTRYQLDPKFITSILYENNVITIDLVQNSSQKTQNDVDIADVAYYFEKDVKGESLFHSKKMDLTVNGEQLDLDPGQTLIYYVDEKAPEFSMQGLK

T4: cMSLN-His-Avi (cynomolgus, single biotin on the Avi tag in the biotinylated form)
T4 construct: Monomeric; also called cyno MSLN-His-Avi; cMSLN-Avi-His
T4 chain: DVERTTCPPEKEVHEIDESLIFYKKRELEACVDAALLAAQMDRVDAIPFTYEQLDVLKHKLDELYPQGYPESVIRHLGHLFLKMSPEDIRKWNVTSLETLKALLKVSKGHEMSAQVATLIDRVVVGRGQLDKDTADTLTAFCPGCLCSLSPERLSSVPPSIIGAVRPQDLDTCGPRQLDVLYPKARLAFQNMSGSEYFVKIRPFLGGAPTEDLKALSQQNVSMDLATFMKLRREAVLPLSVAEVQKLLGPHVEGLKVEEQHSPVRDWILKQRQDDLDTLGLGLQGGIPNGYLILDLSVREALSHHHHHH

B1: FS28-256 (mAb in G1-AA format) (antibody, human IgG1, V domains shown)
VH: EVQLLESGGGLVQPGGSLRLSCAASGFTFTNTYMSWVRQAPGKGLEWVSNISPTYSTTNYADSVKGRFTISRDNSKNTLYLQMNSLRAEDTAVYYCARYNSYQGGLDYWGQGTLVTVSS
VL: EIVLTQSPGTLSLSPGERATLSCRASQSVSSSYLAWYQQKPGQAPRLLIYGASSRATGIPDRFSGSGSGTDFTLTISRLEPEDFAVYYCQQSYYYPITFGQGTKVEIK
B2: FS22-172-003-AA/FS28-024-052 (bispecific antibody, human IgG1, kappa, L234A L235A, V domains shown)
VH: EVQLLESGGGLVQPGGSLRLSCAASGFTLSYSSMSWVRQAPGKGLEWVSFITPSTGYTHYADSVKGRFTISRDNSKNTLYLQMNSLRAEDTAVYYCARRALLFDYWGQGTLVTVSS
VL: EIVLTQSPGTLSLSPGERATLSCRASQSVSSSYLAWYQQKPGQAPRLLIYGASSRATGIPDRFSGSGSGTDFTLTISRLEPEDFAVYYCQQASSYPLTFGQGTKVEIKR
notes: IgG1 mAb^2 with LALA
B3: FS28-185 (mAb in G1-AA format) (antibody, human IgG1, V domains shown)
VH: EVQLLESGGGLVQPGGSLRLSCAASGFTFTTSAMSWVRQAPGKGLEWVSRINPYEGETNYADSVKGRFTISRDNSKNTLYLQMNSLRAEDTAVYYCARGWSIATYYKSAMDYWGQGTLVTVSS
VL: EIVLTQSPGTLSLSPGERATLSCRASQSVSSSYLAWYQQKPGQAPRLLIYGASSRATGIPDRFSGSGSGTDFTLTISRLEPEDFAVYYCQQSSYSAPVTFGQGTKVEIKR

Key:
hMSLN-His-Avi [1] = target: T5, hMSLN-His-Avi (human, UniProt Q13421 296-598, single biotin on the Avi tag in the biotinylated form); test: ELISA, hMSLN-His-Avi coated 1 µg/ml
T5 construct: Monomeric; also called human MSLN-His-Avi; hMSLN-Avi-His

hMSLN-His-Avi [2] = target: T5, hMSLN-His-Avi; test: SPR, hMSLN-His-Avi immobilised at 100 RU
hMSLN-His-Avi [3] = target: T5, hMSLN-His-Avi; test: SPR, hMSLN-His-Avi immobilised at 50 RU
human E-Cadherin = target: T1, human E-Cadherin; test: ELISA, antigen coated 1 µg/ml
Experimental: (§1) Binding of the anti-MSLN mAbs, tested at a concentration range of 0.02 to 1000 nM (3-fold dilutions) was detected using anti-human Fab-HRP (Sigma, A0293).

human Thrombomodulin = human Thrombomodulin (human, UniProt P07204 19-515, limits assumed); test: ELISA, antigen coated 1 µg/ml
Experimental: as §1

human CEACAM-5-His-Fc = target: T2, human CEACAM-5-His-Fc; test: ELISA, antigen coated 1 µg/ml
Experimental: as §1

human EpCAM-hFc = target: T3, human EpCAM-hFc; test: ELISA, antigen coated 1 µg/ml
Experimental: as §1

hMSLN-His-Avi [4] = target: T5, hMSLN-His-Avi; test: SPR, hMSLN-His-Avi immobilised ~100 RU, mAb2 injected
Experimental: (§2) 7.1 Binding of CD137/MSLN mAb2 to Human MSLN Under Avid Conditions—Antigen Capture Method Binding of all mAb^2 to MSLN immobilised on a BIAcore chip was tested to determine the binding affinity to human MSLN under avid conditions, where a high concentration of immobilised antigen is available to allow the antibody to bind avidly. […] The association time was 5 min and the dissociation time was 10 min. Running buffer was HBS-EP (GE Healthcare BR100188). Flow cells were regenerated by injecting Glycine-HCl pH1.5 at a flow rate of 30 μl/min for 30 seconds. Data were analysed by double referencing against a flow cell which was intentionally left blank (no antigen coating). The binding kinetics were fitted with a 1:1 Langmuir model to generate binding association (k_a) and dissociation (k_d) rates. Equilibrium binding constants (K_D) were calculated by dividing the dissociation rate by the association rate for each sample. Data analysis was performed with BiaEvaluation software version 3.2.

[5] = target: T6, endogenous cell surface human MSLN (human, UniProt Q13421 296-598); test: flow cytometry, NCI-H226 cells
T6 construct: whole, on cells; The cell line is named under assay; also called cell-surface MSLN on NCI-H226, OVCAR-3 and AsPC-1 cells
Experimental: (§3) To confirm binding to cell surface MSLN, mAb² listed in Table 9 were analysed for binding to endogenous cell surface MSLN on the human lung cancer cell line NCI-H226. In addition, and because MSLN can be found in blood in a shed soluble form, there is a risk that this circulating MSLN might affect exposure and ultimately potency of our mAb². To confirm that presence of soluble MSLN has minimal impact, additional binding experiments to NCI-H226 cells were performed in the presence of 20 nM soluble MSLN which is 10-20 times the level of soluble MSLN found to be of diagnostic value for defining malignant mesothelioma and lung cancer patients as MSLN positive (Cui et al., 2014). Briefly, NCI-H226 cells (ATCC CRL-5826) were harvested from T175 cell culture flasks using Accutase (Gibco, A11105-01).
(§4) In both cases, cells were centrifuged at 1200 rpm for 3 min and resuspended in ice cold FACS buffer made up of DPBS (Life Technologies, 14190169) and 1% BSA (Sigma-Aldrich, A7906) at 2×10⁶ cells/ml and 50 μl per well was seeded in a 96-well V-bottom plate (Costar, 3894). All antibodies tested were diluted in FACS buffer in 120 μl at a concentration range of 0.01-200 nM (4-fold dilutions). The NCI-H226 cells were then centrifuged, supernatant removed and cells resuspended in 100 μl of each mAb dilution and incubated at 4° C. for 45 min. Cells were washed twice by centrifugation with 150 μl FACS buffer, resuspended in 100 μl containing goat anti-human IgG (γ-chain specific) F(ab')2 fragment-R-Phycoerythrin antibody (Sigma, P8047) diluted 1:1000 in FACS buffer and incubated at 4° C. for 45 min. The cells were washed once with 150 μl FACS buffer and then with 150 μl DPBS, resuspended in 150 μl DPBS containing DAPI (Biotium, 40043) at 1:10.000 and read on the BDCantoII or iQue (Intellicyt).

hMSLN-His-Avi [6] = target: T5, hMSLN-His-Avi; test: SPR, mAb2 captured on Protein G, hMSLN-His-Avi in solution
Experimental: (§5) The association time was 5 min and the dissociation time was 5 min. Running buffer was HBS-EP (GE Healthcare BR100188). Flow cells were regenerated by injecting Glycine-HCl pH2.1 at a flow rate of 30 μl/min for 15 seconds. The data was analysed as described in Example 7.1.

[7] = target: T6, endogenous cell surface human MSLN; test: flow cytometry, NCI-H226 cells + 20 nM soluble MSLN
Experimental: as §3, §4

hCD137-mFc-Avi = target: T7, hCD137-mFc-Avi (human; mouse, UniProt Q07011 24-186, one biotin on each Avi tag in the biotinylated form); test: SPR, mAb2 captured by anti-human Fab, hCD137-mFc-Avi in solution
T7 construct: also called human dimeric CD137; human CD137-mFc-Avi
Experimental: A Biacore CM5 chip was coated with anti-human Fab using a Human Fab Capture Kit (GE Healthcare 28958325) according to manufacturer's conditions, to a surface density of approximately 9000 RU. […] The association time was 5 min and the dissociation time was 5 min. Running buffer was HBS-EP. Flow cells were regenerated by injecting two repeat injections of 10 mM glycine-HCl at pH 2.1 at a flow rate of 30 μl/min for 30 seconds. Data analysis was performed as described in earlier examples (see e.g. Example 7.1).

[8] = target: human CD137 on primary human CD8+ T cells (human, UniProt Q07011 24-255); test: cell-based or functional assay
hMSLN-His-Avi [9] = target: T5, hMSLN-His-Avi; test: ratio of SPR KDs
Experimental: as §2, §5

cMSLN-His-Avi = target: T4, cMSLN-His-Avi; test: SPR, mAb2 captured on Protein G, cMSLN-His-Avi in solution
Experimental: as §5

T6 sequence (Q13421 other isoform, or with tags, fused parts or gaps limits assumed): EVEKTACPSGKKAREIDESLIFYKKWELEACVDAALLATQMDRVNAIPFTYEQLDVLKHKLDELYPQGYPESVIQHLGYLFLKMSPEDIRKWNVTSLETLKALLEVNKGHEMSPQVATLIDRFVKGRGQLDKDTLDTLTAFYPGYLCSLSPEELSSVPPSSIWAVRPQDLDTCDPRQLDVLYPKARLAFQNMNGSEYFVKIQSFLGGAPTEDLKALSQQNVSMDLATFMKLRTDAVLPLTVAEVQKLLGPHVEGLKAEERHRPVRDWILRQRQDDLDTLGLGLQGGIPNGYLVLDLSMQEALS
human CD137 on primary human CD8+ T cells, sequence (Q07011 24-255): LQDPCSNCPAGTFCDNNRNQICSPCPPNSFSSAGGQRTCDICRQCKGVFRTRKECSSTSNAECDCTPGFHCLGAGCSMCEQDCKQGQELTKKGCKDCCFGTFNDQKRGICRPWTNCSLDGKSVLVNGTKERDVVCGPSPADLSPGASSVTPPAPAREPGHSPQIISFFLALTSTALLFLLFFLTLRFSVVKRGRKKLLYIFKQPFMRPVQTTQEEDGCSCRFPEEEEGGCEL
T5 sequence (Q13421 other isoform, or with tags, fused parts or gaps): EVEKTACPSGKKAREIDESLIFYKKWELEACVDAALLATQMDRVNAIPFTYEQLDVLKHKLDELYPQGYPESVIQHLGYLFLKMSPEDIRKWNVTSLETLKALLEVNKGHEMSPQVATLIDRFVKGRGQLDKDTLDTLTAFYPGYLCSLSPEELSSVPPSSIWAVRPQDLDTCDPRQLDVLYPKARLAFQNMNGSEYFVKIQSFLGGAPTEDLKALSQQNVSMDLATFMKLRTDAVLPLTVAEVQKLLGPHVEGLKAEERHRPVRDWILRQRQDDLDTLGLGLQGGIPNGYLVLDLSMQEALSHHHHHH
human Thrombomodulin, sequence (P07204 19-515 limits assumed): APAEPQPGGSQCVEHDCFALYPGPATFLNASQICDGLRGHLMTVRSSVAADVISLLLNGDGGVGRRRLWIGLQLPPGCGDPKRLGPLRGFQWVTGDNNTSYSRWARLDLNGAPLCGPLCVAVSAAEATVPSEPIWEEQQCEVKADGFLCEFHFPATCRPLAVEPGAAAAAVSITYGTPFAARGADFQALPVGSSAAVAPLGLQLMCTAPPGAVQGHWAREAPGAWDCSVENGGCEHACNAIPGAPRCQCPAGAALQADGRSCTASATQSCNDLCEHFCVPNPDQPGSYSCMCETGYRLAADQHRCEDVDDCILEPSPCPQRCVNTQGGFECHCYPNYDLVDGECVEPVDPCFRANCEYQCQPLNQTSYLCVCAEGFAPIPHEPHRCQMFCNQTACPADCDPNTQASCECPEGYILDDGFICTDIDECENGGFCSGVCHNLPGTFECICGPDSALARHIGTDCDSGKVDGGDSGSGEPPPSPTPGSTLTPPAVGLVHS
T7 sequence (Q07011 24-186): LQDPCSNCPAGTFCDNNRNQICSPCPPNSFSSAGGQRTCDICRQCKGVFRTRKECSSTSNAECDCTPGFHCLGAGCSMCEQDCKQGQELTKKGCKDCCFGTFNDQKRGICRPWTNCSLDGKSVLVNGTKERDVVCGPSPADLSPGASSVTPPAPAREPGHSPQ

Row | Binder | EC50 (hMSLN-His-Avi [1]) | maximum binding signal (hMSLN-His-Avi [1]) | Kd (hMSLN-His-Avi [2]) | Kd (hMSLN-His-Avi [3]) | binding result (human E-Cadherin) | binding result (human Thrombomodulin) | binding result (human CEACAM-5-His-Fc) | binding result (human EpCAM-hFc) | further results
1 | B1 | ~0.5 nM | 3 | 23.2 nM | 26.2 nM | no binding (tested: 1000 nM) | no binding (tested: 1000 nM) | no binding (tested: 1000 nM) | no binding (tested: 1000 nM) | 
2 | B2 |  |  |  |  |  |  |  |  | Kd (hMSLN-His-Avi [4]): 0.39 nM; EC50 [5]: 0.884 nM; Emax (MFI) [5]: 752000 MFI; Kd (hMSLN-His-Avi [6]): 33.1 nM; EC50 [7]: 3.64 nM; Emax (MFI) [7]: 799000 MFI; Kd (hCD137-mFc-Avi): 1.51 nM; Emax (IL-2 pg/ml), NCI-H226 co-culture, Donor A [8]: 1070 pg/mL; Emax (IL-2 pg/ml), NCI-H226 co-culture, Donor B [8]: 1690 pg/mL; IL-2 release EC50, NCI-H226 co-culture, Donor A [8]: 0.04 nM; IL-2 release EC50, NCI-H226 co-culture, Donor B [8]: 0.05 nM; KD ratio in solution/immobilised human MSLN (hMSLN-His-Avi [9]): 85; Kd (cMSLN-His-Avi): 239 nM
3 | B3 | ~0.5 nM | 3 | 29.6 nM | 37 nM | no binding (tested: 1000 nM) | no binding (tested: 1000 nM) | no binding (tested: 1000 nM) | no binding (tested: 1000 nM) | 
